Measured values from paper PMC8220723.

Assays:
[1] = molecular target: FuTraP-hASCT2-d17, human ASCT2 with a deletion of 17 amino acids of region C, fused to AcGFP (human) (UniProt Q15758)
[2] = molecular target: wild-type human ASCT2 fused to AcGFP (FuTraP-hASCT2-wt) (human) (UniProt Q15758)
[3] = molecular target: FuTraP-hASCT2-d17, human ASCT2 with a deletion of 17 amino acids of region C, fused to AcGFP (human) (UniProt Q15758); remark: listed apart in the source
[4] = flow cytometry, AcGFP MFI normalised to iRFP713 MFI; conditions: glycan lost; control: wild type (FuTraP-hASCT2-wt)
[5] = confocal microscopy, AcGFP with membrane dye; conditions: glycan lost; control: wild type (FuTraP-hASCT2-wt)
[6] = infection, dsRed-positive cells by flow cytometry; conditions: glycan lost; control: wild type (FuTraP-hASCT2-wt)

For “Syncytin-1 envelope glycoprotein of the chimeric virus MCAS(Sync1-MSC16)dsRed (cytoplasmic tail shortened to 16 amino acids) (from UniProt Q9UQF0 21-538) (natural protein)”, the spinoculation of cells expressing the FuTraP variant with MCAS(Sync1-MSC16)dsRed, infected (dsRed-positive) cells by flow cytometry [1] was 21%, the spinoculation of cells expressing the FuTraP variant with MCAS(Sync1-MSC16)dsRed, infected (dsRed-positive) cells by flow cytometry [2] was 56% and the infection of DF-1/LgBiT cells expressing the FuTraP variant by MCAS(Sync1-MSC16)dsRed, dsRed-positive cells by flow cytometry (reduced sensitivity compared to the wild type) [3] was 1.7%.

B1: ASCT2: N212Q (protein)
parent chain: MVADPPRDSKGLAAAEPTANGGLALASIEDQGAAAGGYCGSRDQVRRCLRANLLVLLTVVAVVAGVALGLGVSGAGGALALGPERLSAFVFPGELLLRLLRMIILPLVVCSLIGGAASLDPGALGRLGAWALLFFLVTTLLASALGVGLALALQPGAASAAINASVGAAGSAENAPSKEVLDSFLDLARNIFPSNLVSAAFRSYSTTYEERNITGTRVKVPVGQEVEGMNILGLVVFAIVFGVALRKLGPEGELLIRFFNSFNEATMVLVSWIMWYAPVGIMFLVAGKIVEMEDVGLLFARLGKYILCCLLGHAIHGLLVLPLIYFLFTRKNPYRFLWGIVTPLATAFGTSSSSATLPLMMKCVEENNGVAKHISRFILPIGATVNMDGAALFQCVAAVFIAQLSQQSLDFVKIITILVTATASSVGAAGIPAGGVLTLAIILEAVNLPVDHISLILAVDWLVDRSCTVLNVEGDALGAGLLQNYVDRTESRSTEPELIQVKSELPLDPLPVPTEEGNPLLKHYRGPAGDATVASEKESVM
In the case of B1, the “expression_or_secretion, percent_of_wt” value [4] is reported as “decreases”, the localisation_or_trafficking [5] is reported as “no change” and the “other: receptor-mediated sensitivity to viral infection” value [6] is reported as “no change”.
